Test results reported in the supplement of paper PMC7125110.
± gives the standard error. For part of these data: This sample holds only a part of the variants without activity.

B1: glmS ribozyme (parent)
chain: AUAAAAGCGCCAGAACUACAGAAAUGUAGUUGACGAGGAGGAGGUUUAUCGAAUUUUCGGCGGAUGCCUCCAAA

Experiments:
Conditions in all cases: with glucosamine-6-phosphate
glucosamine-6-phosphate [1] = variants of: B1; experiment: kcat; higher = faster cleavage; RNA array
Summary of the method: (§1)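 Tiles bearing barcoded ribozyme variants, transcribed in situ by E. coli RNA polymerase on sequenced MiSeq chips, were imaged over ~14 h at 37 °C using a hybridised Cy3 probe. Glucosamine-6-phosphate was supplied at 40 μM to 10 mM in HEPES/KCl/Mg(OAc)2 buffer. kobs came from one- or two-exponential decay fits to normalised per-tile medians, and weighted Michaelis–Menten fits then provided kcat and KM.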

glucosamine-6-phosphate [2] = variants of: B1; experiment: self-cleavage kobs at 640 uM GlcN6P; higher = faster cleavage; RNA array
Summary of the method: as §1

glucosamine-6-phosphate [3] = variants of: B1; experiment: self-cleavage kobs at 2500 uM GlcN6P; higher = faster cleavage; RNA array
Summary of the method: as §1

glucosamine-6-phosphate [4] = variants of: B1; experiment: self-cleavage kobs at 10000 uM GlcN6P; higher = faster cleavage; RNA array
Summary of the method: as §1

glucosamine-6-phosphate [5] = variants of: B1; experiment: KM; higher = weaker cofactor use; RNA array
Summary of the method: as §1

glucosamine-6-phosphate [6] = variants of: B1; experiment: self-cleavage kobs at 40 uM GlcN6P; higher = faster cleavage; RNA array
Summary of the method: as §1

glucosamine-6-phosphate [7] = variants of: B1; experiment: self-cleavage kobs at 160 uM GlcN6P; higher = faster cleavage; RNA array
Summary of the method: as §1

Row | Variant | kcat (glucosamine-6-phosphate [1]) | self-cleavage kobs at 640 uM GlcN6P (glucosamine-6-phosphate [2]) | self-cleavage kobs at 2500 uM GlcN6P (glucosamine-6-phosphate [3]) | self-cleavage kobs at 10000 uM GlcN6P (glucosamine-6-phosphate [4]) | KM (glucosamine-6-phosphate [5]) | self-cleavage kobs at 40 uM GlcN6P (glucosamine-6-phosphate [6]) | self-cleavage kobs at 160 uM GlcN6P (glucosamine-6-phosphate [7])
1 | A12C U57A | 0.000102 ± 2.4e-05 s⁻¹ | 5.75e-05 ± 1.5e-05 s⁻¹ | 6.14e-05 ± 1.2e-05 s⁻¹ | 0.000113 ± 1.9e-05 s⁻¹ | – | – | –
2 | A14U A36G G66U | < 1e-05 s⁻¹ | < 1e-05 s⁻¹ | – | < 1e-05 s⁻¹ | – | – | –
3 | U31G A33U C70U | 9.54e-05 ± 1.9e-05 s⁻¹ | – | – | 7.8e-05 ± 2e-05 s⁻¹ | – | – | –
4 | G38A C58U C68G | 4.92e-05 ± 1.7e-05 s⁻¹ | 5.5e-05 ± 2.5e-05 s⁻¹ | 6.16e-05 ± 2.5e-05 s⁻¹ | – | – | – | –
5 | A6C C71A | 2.27e-05 ± 4.2e-07 s⁻¹ | – | – | 2.19e-05 ± 1.1e-05 s⁻¹ | 0.205 ± 0.038 mM | – | –
6 | A12C C58U | 0.000159 ± 1.6e-05 s⁻¹ | – | 4.66e-05 ± 9.5e-06 s⁻¹ | 9.68e-05 ± 1.2e-05 s⁻¹ | 6.36 ± 1.2 mM | – | –
7 | A15G G66C | 0.000786 ± 0.00011 s⁻¹ | 0.000368 ± 6e-05 s⁻¹ | 0.000793 ± 0.00014 s⁻¹ | 0.000649 ± 9.7e-05 s⁻¹ | 0.833 ± 0.22 mM | 3.37e-05 ± 1.1e-05 s⁻¹ | 0.000115 ± 2.5e-05 s⁻¹
8 | C67A C70U | 0.00153 ± 0.00062 s⁻¹ | 0.000461 ± 6.6e-05 s⁻¹ | 0.00129 ± 0.00019 s⁻¹ | 0.00206 ± 0.00033 s⁻¹ | – | 9.1e-05 ± 9.4e-06 s⁻¹ | 0.000211 ± 3.6e-05 s⁻¹
9 | A39C U45C | 0.000523 ± 3.8e-05 s⁻¹ | 9.68e-05 ± 1.7e-05 s⁻¹ | 0.000214 ± 3.8e-05 s⁻¹ | 0.000408 ± 4.5e-05 s⁻¹ | 3.08 ± 0.44 mM | – | –
10 | U49A G59U | 1.28e-05 ± 4.5e-06 s⁻¹ | – | – | – | – | – | –
11 | A64G C68A | < 1e-05 s⁻¹ | – | – | – | – | – | –
12 | A36U U54A | < 1e-05 s⁻¹ | – | – | – | – | – | –
13 | C10U C50A | < 1e-05 s⁻¹ | – | – | < 1e-05 s⁻¹ | – | < 1e-05 s⁻¹ | –
14 | G51U G60C C68A | 2.85e-05 ± 8.6e-06 s⁻¹ | – | – | – | – | – | –
15 | A6C C70G | 1.09e-05 ± 2.1e-06 s⁻¹ | – | – | – | – | – | –
16 | U57G G66A | 2.15e-05 ± 3.2e-06 s⁻¹ | – | – | – | – | < 1e-05 s⁻¹ | –
17 | C10G C67U | < 1e-05 s⁻¹ | – | – | – | – | < 1e-05 s⁻¹ | –
18 | C34A U46G | < 1e-05 s⁻¹ | < 1e-05 s⁻¹ | < 1e-05 s⁻¹ | < 1e-05 s⁻¹ | – | < 1e-05 s⁻¹ | –
19 | U31A U45C | 0.00168 ± 0.00049 s⁻¹ | 0.000288 ± 8.9e-05 s⁻¹ | 0.000998 ± 0.00023 s⁻¹ | 0.00116 ± 0.00024 s⁻¹ | 3.38 ± 1.6 mM | – | –
20 | G37A G66A | 0.00157 ± 0.00017 s⁻¹ | 0.0002 ± 5.4e-05 s⁻¹ | 0.000527 ± 0.0001 s⁻¹ | 0.00114 ± 0.00018 s⁻¹ | 4.29 ± 0.74 mM | 1.72e-05 ± 8.5e-06 s⁻¹ | 6.39e-05 ± 2e-05 s⁻¹
21 | A42G G43A | 0.000155 ± 2.1e-05 s⁻¹ | 5.32e-05 ± 1.5e-05 s⁻¹ | 8.7e-05 ± 2.3e-05 s⁻¹ | 0.000143 ± 2.8e-05 s⁻¹ | 1.44 ± 0.5 mM | < 1e-05 s⁻¹ | –
